Data from the supplement of paper PMC9732359.
± gives the uncertainty stated by the source.

Experiment: protein stability index of a GFP-peptide fusion (yeast GPS) (PSI 1-4); higher = more stable; sorted into four equal gates, so the index is relative within each strain
Procedure, shortened: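 Sequencing reads from sorted gates were used to score each peptide. The library consisted of tiled 17-residue yeast protein peptides fused downstream of GFP on a Cherry-expressing plasmid, pooled and carried in yeast. Mid-log cultures in leucine-free medium were split into four equal gates by GFP/Cherry ratio, and each gate's plasmids were PCR-amplified and Illumina-sequenced. The protein stability index adds up, over all gates, the read frequency multiplied by the gate number.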

Sequence	protein stability index (doa10∆)	protein stability index (pdr5∆)	protein stability index (san1∆)	protein stability index (ubr1∆)
KNVLANSIWGSSLRKNA [ITC1]	1.49 ± 0.057	1.89 ± 0.05	1.82 ± 0.13	1.45 ± 0.042
RVHRRNNRWAENNYKKR [RPS23A]	3.26 ± 0.29	3.55 ± 0.21	–	3.54 ± 0.1
GEILLPDIADIPRTFRT [SNF5]	2.82 ± 0.14	3.18 ± 0.12	3.19 ± 0.12	3.05 ± 0.1
KFFMKHGLILELQKIWQ [SRB5]	2.94 ± 0.096	3.02 ± 0.089	3.32 ± 0.069	3.18 ± 0.037
MAKQLIRLANESSELNK [CSN12]	3 ± 0.08	2.62 ± 0.064	2.96 ± 0.079	2.63 ± 0.073
AISTDKINPFGFEQVKI [RRI2]	2.75 ± 0.056	2.94 ± 0.05	2.72 ± 0.061	2.86 ± 0.061
TVVTVVSTAKFSGKYLK [RPL22A]	3.18 ± 0.12	3.13 ± 0.083	3.38 ± 0.17	2.96 ± 0.065
FVKFITYLTQEILILIN [SIN4]	2.02 ± 0.05	1.7 ± 0.044	1.57 ± 0.069	1.59 ± 0.042
ASMLGLFVFTEGWPKFQ [QCR10]	1.79 ± 0.1	1.96 ± 0.099	–	2.82 ± 0.2
AESEAITVTAKQQPTMQ [SWI3]	3.14 ± 0.083	3.22 ± 0.063	2.88 ± 0.071	3.04 ± 0.035
DDDDSRKSAPVDSWDRE [SKP1]	3.15 ± 0.047	3.21 ± 0.048	3.21 ± 0.048	3.23 ± 0.044
AAKKAMYTLSAQDEVFS [ASC1]	2.78 ± 0.071	2.6 ± 0.063	2.23 ± 0.091	2.83 ± 0.06
AGKQLEDGRTLSDYNIQ [RPS31]	2.81 ± 0.11	2.94 ± 0.16	3.6 ± 0.094	3.15 ± 0.1
SSIDKKSSILTVLQKNS [YML103C/NUP188]	1.79 ± 0.063	2.42 ± 0.083	2.4 ± 0.067	2.46 ± 0.058
VNCFHEDTELYQELIKN [YJL039C/NUP192]	2.13 ± 0.12	2.82 ± 0.16	2.83 ± 0.081	2.67 ± 0.056
DIDDELNELETLIKKKQ [SMC2]	3.31 ± 0.16	3.11 ± 0.1	2.99 ± 0.078	3.24 ± 0.078
VNNRDSEKGFSKEQIHG [YCS4]	–	3.49 ± 0.18	–	–
DGIHYILNHIGQLTGIY [PRP8]	1.67 ± 0.065	1.55 ± 0.073	1.14 ± 0.12	1.67 ± 0.078
EPPGSNTSFSFTKPPAN [YOR098C/NUP1]	3.12 ± 0.07	3.21 ± 0.057	3 ± 0.039	2.96 ± 0.053
NVEPTENAYKSENAPSA [YAR002W/NUP60]	2.81 ± 0.094	3.02 ± 0.12	2.29 ± 0.16	3.03 ± 0.12
LVSDSEIIDLNLHSFTK [POP6]	2.62 ± 0.072	2.81 ± 0.069	2.31 ± 0.07	2.71 ± 0.048
QTKSNGTAGGNTFGSSS [YJL041W/NSP1]	3.28 ± 0.063	2.84 ± 0.064	2.96 ± 0.055	3.22 ± 0.053
QTYINQELGFCELLKLT [SSN2]	2.81 ± 0.24	2.45 ± 0.12	2.39 ± 0.17	2.67 ± 0.093
MNVTPLDELQWKSPEWI [MED6]	3.1 ± 0.13	3.14 ± 0.1	3.19 ± 0.061	3.37 ± 0.21
LNAKYQSLGLDDLQKFN [ISW2]	3.03 ± 0.066	3 ± 0.061	2.74 ± 0.049	2.7 ± 0.044
DTNSSKPKNTKENLSKS [SIR4]	1.33 ± 0.21	1.56 ± 0.12	2.05 ± 0.15	–
TSDNLLTITKAAGANVD [RPP1B]	1.97 ± 0.066	2.13 ± 0.056	3.05 ± 0.08	2.26 ± 0.082

Sequence	protein stability index (doa10∆)	protein stability index (pdr5∆)	protein stability index (san1∆)	protein stability index (ubr1∆)
CLMRSLHKLELKAKNQE [DSN1]	1.21 ± 0.06	1.31 ± 0.067	1.19 ± 0.16	1.16 ± 0.051
DHSWFLLIGCKLDQDDE [CSI1]	1.54 ± 0.11	1.95 ± 0.096	3.03 ± 0.12	2.34 ± 0.064
SLEALIDLCHDFPHLTP [YCS4]	2.31 ± 0.042	2.35 ± 0.036	2.56 ± 0.049	2.25 ± 0.031
LIQKLQNSANNNSDDED [IRR1]	2.98 ± 0.1	3.08 ± 0.074	3.26 ± 0.05	3.38 ± 0.083
IVVQLNGRLNKCGVISP [RPS22A]	3.25 ± 0.19	3.35 ± 0.14	2.98 ± 0.093	3.49 ± 0.079
NMMEHWDYLQLTVAMYI [RPO31]	2.08 ± 0.061	2.2 ± 0.063	2.4 ± 0.15	1.85 ± 0.063
ESDSKLQCHISGTTNFM [UBP6]	2.63 ± 0.23	2.69 ± 0.26	2.92 ± 0.28	3.08 ± 0.15
LSLQRANVEILAVEDKP [CSL4]	1.35 ± 0.054	1.44 ± 0.061	1.67 ± 0.092	1.61 ± 0.044
NQFLKIKKKRKELFEKT [SMC1]	3.06 ± 0.15	3 ± 0.11	2.96 ± 0.12	3.29 ± 0.16
IAKATKEFKGIKVTVQL [RPL12A]	–	–	–	3.35 ± 0.18
PDELIKAGVEAISQSLR [PRE5]	2.83 ± 0.14	2.91 ± 0.15	–	1.49 ± 0.051
EDEDEDLFGDSNKSNST [SSN2]	2.69 ± 0.05	2.82 ± 0.061	2.86 ± 0.079	2.18 ± 0.032
LVQLFLWDSKELEQLVE [RPN3]	2.64 ± 0.13	2.78 ± 0.084	2.08 ± 0.28	2.85 ± 0.083
RAPELLLGARHYTPAVD [SSN3]	1.67 ± 0.12	1.08 ± 0.13	1.9 ± 0.3	1.56 ± 0.11
LVTCEGSEEKAFVPKKR [SRP54]	2.19 ± 0.12	1.85 ± 0.11	1.62 ± 0.13	1.61 ± 0.066
NEIANSIIQSKQDCVDW [BRR2]	2.61 ± 0.069	2.87 ± 0.071	2.73 ± 0.071	2.88 ± 0.079
NVYVLPKNLLKKFIEIS [PRP8]	1.93 ± 0.048	2.16 ± 0.045	2.06 ± 0.084	1.79 ± 0.048
NKSISDEITEDMFEMSD [SSN2]	3.03 ± 0.075	3.1 ± 0.075	2.82 ± 0.058	3.1 ± 0.05
PYLLPYILEAEAAAKEK [QCR7]	1.39 ± 0.07	1.26 ± 0.062	1.5 ± 0.11	1.19 ± 0.053
NVSIVANYIKERTKNAQ [SMC4]	3.02 ± 0.12	3.14 ± 0.065	2.91 ± 0.05	3.18 ± 0.061
TTTTANINEVKKASDLV [NUT1]	3.01 ± 0.06	3.07 ± 0.067	2.84 ± 0.067	2.62 ± 0.074
STNEDQNNSKHTEDTVN [SRB5]	2.39 ± 0.1	2.1 ± 0.077	1.65 ± 0.1	2.31 ± 0.051
KDVAKPTGPKTAIDKNG [FAS2]	3.31 ± 0.18	3.04 ± 0.11	3.06 ± 0.074	3.19 ± 0.1
FMLSDDEGMESIEMEEE [RRI2]	2.59 ± 0.22	3.78 ± 0.29	3.38 ± 0.097	–
VRLRSNVIKTGIRIISL [RPN3]	2.27 ± 0.21	2.35 ± 0.14	2.22 ± 0.23	2.44 ± 0.065
GAHLLEFQPSGNVTELY [PRE5]	2.54 ± 0.12	2.99 ± 0.076	2.92 ± 0.12	3.02 ± 0.11
SVQTFGKKKSATAVAHV [RPS16A]	2.37 ± 0.065	2.49 ± 0.069	2.19 ± 0.11	2.1 ± 0.069
